Measured values as given in publication PMC6426608.
Residue numbers refer to the chain shown, from its start.

What was measured:
Assay in all cases: EMSA
Settings in all cases: EMSA: 40 ng probe in 20 ul of 10 mM Tris-HCl pH 7.4, 50 mM KCl, 5 mM MgCl2, 10% glycerol; room temperature 20 min; 6% PAGE, DNA dye
[1] = tested on: T1, RhpR D70E D70E (Pseudomonas savastanoi pv. phaseolicola 1448A), ORF:976030cf
T1 sequence: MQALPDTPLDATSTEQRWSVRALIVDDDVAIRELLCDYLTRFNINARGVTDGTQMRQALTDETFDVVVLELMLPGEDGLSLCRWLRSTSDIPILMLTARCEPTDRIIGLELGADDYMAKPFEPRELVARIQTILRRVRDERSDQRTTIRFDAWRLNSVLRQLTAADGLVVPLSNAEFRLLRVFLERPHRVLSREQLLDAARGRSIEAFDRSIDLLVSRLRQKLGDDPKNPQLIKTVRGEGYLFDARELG

[2] = tested on: T2, RhpR (Pseudomonas savastanoi pv. phaseolicola 1448A), ORF:976030cf
T2 sequence: T1 sequence with E70D

[3] = tested on: T3, RhpR D70A D70A (Pseudomonas savastanoi pv. phaseolicola 1448A), ORF:976030cf
T3 sequence: T1 sequence with E70A

TTGGATCCGGAAACACCAGATGCATGAGCCGACGACGGTCATCCGTAAAAACCATGACCAAAGTGCATTGTTGCAAAGTTCATACCTTTTTGGCAGACCCTTTGCCTGTCAGATGACATCCATGTGACGTGGGGCACTACACGGCTGCCAGACGGGTCAGATCCAGGTGTGTCGCGAGACCGCCAAGGTGAATGAGCAGGGCTCGGCTATGCTTGCTCGCGGCGTTACATATTCTTCCCCCACTGAACAGGTGACAGTCCTCGAGAA (double strand) [PSPPH_2590-p-ΔIR]
binding [1]: no binding

TTGGATCCGACGGACCCTCGTGGGTAGCTCGGATGCTTGGGTGATAGCCCAAGCATCCGCCGTGTGCGAGGTACAACCATTGACCTGGCGCAATGAAGCAGCCTGATAGCAGACCGTTGGTCGAAGACTCTTCGGTCTACGTGTGCAGGGTGGCTGTTCTCGAGAA (double strand) [adhB promoter]
binding [2]: binds

TTCTCGAGTGAAATATCGACCTGAGGAAATTGCCCCTTTGATAATAGGACTCGCATGTATAATACCGGCCAAAACCGGACCAGCCGCCATTAACTTCTCTTCATGTAACGGCCATATCACCCCCGACTTGAACCGCCTTTTACTGCGTATGTGTCTGTTTTGGTACATTTCGCGACGCTCCAGCACTGGAAACGCCCGGGATCCAA (double strand) [ccmA promoter]
binding [2]: binds

TTGGATCCAACACCCTATCCACTGAAGGTCTTGGCGGGCAAAAAACAAGCCGAGGATTATACCCGAGCTATGACCCTCGAGAA (double strand) [rpoD promoter]
binding [2]: binds

TTGGATCCGGAAACACCAGATGCATGAGCCGACGACGGTCATCCGTAAAAACCATGACCAAAGGTAACAAGTGTGCTGCTGCATTGTTGCAAAGTTCATACCTTTTTGGCAGACCCTTTGCCTGTCAGATGACATCCATGTGACGTGGGGCACTACACGGCTGCCAGACGGGTCAGATCCAGGTGTGTCGCGAGACCGCCAAGGTGAATGAGCAGGGCTCGGCTATGCTTGCTCGCGGCGTTACATATTCTTCCCCCACTGAACAGGTGACAGTCCTCGAGAA (double strand) [PSPPH_2590 promoter]
binding [3]: binds more weakly | binding [1]: binds

TTCTCGAGTGAAATATCGACCTGAGGAAATTGCCCCTTTGATAATAGGACTCGCATGTATAATACCGGCCAAAACCGGACCAGCCGCCATTAACTTCTCTTCATGTAACGGCCATATCACCCCCGACTTGAACCGCCTTTTACTGCGTATATTTCGCGACGCTCCAGCACTGGAAACGCCCGGGATCCAA (double strand) [ccmA-ΔIR promoter]
binding [2]: no binding

TTGGATCCGACGGACCCTCGTGGGGTGATAGCCCAAGCATCCGCCGTGTGCGAGGTACAACCATTGACCTGGCGCAATGAAGCAGCCTGATAGCAGACCGTTGGTCGAAGACTCTTCGGTCTACGTGTGCAGGGTGGCTGTTCTCGAGAA (double strand) [adhB-ΔIR promoter]
binding [2]: no binding
